Test results reported in patent US20150203577A1 (Chugai, published 2015).
Positions count from the first letter of the chain named. Where “and” joins values, the source holds several entries; their conditions need not be identical. Identical values can stand only once.

T1: mouse FcγRII extracellular domain, C-terminally His-tagged (mouse, UniProt P08101 30-210)
T1 construct: the whole entry is named; also called mFcγRII; mFcgRII
T1 sequence: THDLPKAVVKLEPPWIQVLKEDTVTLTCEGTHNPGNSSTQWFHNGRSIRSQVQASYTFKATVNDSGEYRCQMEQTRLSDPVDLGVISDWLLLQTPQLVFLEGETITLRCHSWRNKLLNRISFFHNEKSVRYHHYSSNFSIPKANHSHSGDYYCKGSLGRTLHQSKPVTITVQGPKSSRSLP

T2: mouse FcγRIII extracellular domain, C-terminally His-tagged (mouse, UniProt P08508 31-215)
T2 construct: the whole entry is named; also called mFcγRIII; mFcgRIII
T2 chain: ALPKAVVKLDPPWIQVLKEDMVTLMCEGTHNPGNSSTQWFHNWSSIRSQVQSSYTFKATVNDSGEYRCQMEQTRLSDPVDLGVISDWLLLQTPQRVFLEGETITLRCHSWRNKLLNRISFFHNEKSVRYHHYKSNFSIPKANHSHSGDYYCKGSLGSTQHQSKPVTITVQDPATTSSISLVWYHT

T3: mouse FcγRIII extracellular domain, C-terminal His tag (mouse, UniProt P08508 31-215)
T3 construct: Whole entry named; also called mFcγRIII; mFcgRIII
T3 chain: T2 chain

T4: mouse FcγRII extracellular domain, C-terminal His tag (mouse, UniProt P08101 30-210)
T4 construct: Whole entry named; also called mFcγRII; mFcgRII
T4 sequence: T1 sequence

T5: mouse FcγRIII (mouse, UniProt P08508 31-215)
T5 construct: Extracellular domain with C-terminal His tag, made in FreeStyle 293 cells; also called mFcγRIII; mFcgRIII
T5 chain: T2 chain

T6: mouse FcγRII (mouse, UniProt P08101 30-210)
T6 construct: Extracellular domain with C-terminal His tag, made in FreeStyle 293 cells; also called mFcγRII; mFcgRII
T6 sequence: T1 sequence

B1: H237-MB623/MRAL-k0 (antibody, mouse IgG1, kappa)
heavy: QVQLQESGPGLVKPSETLSLTCAVSGHSISHDHAWSWVRQPPGEGLEWIGFISYSGITNYNPSLQGRVTISRDNSKNTLYLQMNSLRAEDTAVYYCARSLARTTAMDYWGEGTLVTVSSAKTTPPSVYPLAPGSAAQTNSMVTLGCLVKGYFPEPVTVTWNSGSLSSGVHTFPAVLQSDLYTLSSSVTVPSSTWPSETVTCNVAHPASSTKVDKKIVPRDCGCKPCICEAYEVELVFIFPPKPKDVLTITLTPKVTCVVVDISKDDPEVQFSWFVDDVEVHTAQTQPREEQFNSTFRSVSELPIMHQDWLNGKEFKCRVNSAAFPAPIEKTISKTKGRPKAPQVYTIPPPKEQMAKDKVSLTCMITDFFPEDITVEWQWNGQPAENYKNTQPIMDTDGSYFVYSKLNVQKSNWEAGNTFTCSVLHEGLHNHHTEKSLSHSPGK
light: not shown
notes: copies: 2 + 2
B2: H237-MB635/MRAL-k0 (antibody, mouse IgG1, kappa)
heavy: B1 heavy with A230T, L235N
light: not shown
notes: copies: 2 + 2
B3: H237-MB628/MRAL-k0 (antibody, mouse IgG1, kappa)
heavy: B1 heavy with A230P, Y231A
light: not shown
notes: copies: 2 + 2
B4: H237-MB633/MRAL-k0 (antibody, mouse IgG1, kappa)
heavy: B1 heavy with A230D, L235N
light: not shown
notes: copies: 2 + 2
B5: H237-MB684/MRAL-k0 (antibody)
heavy: B1 heavy with E229Q, A230P, Y231K, L235D
light: not shown
notes: copies: 2 + 2
B6: H237-MB630/MRAL-k0 (antibody, mouse IgG1, kappa)
heavy: B1 heavy with A230P, Y231N
light: not shown
notes: copies: 2 + 2
B7: H237-MB637/MRAL-k0 (antibody, mouse IgG1, kappa)
heavy: B1 heavy with A230P, Y231A, L235N
light: not shown
notes: copies: 2 + 2
B8: H237-MB636/MRAL-k0 (antibody, mouse IgG1, kappa)
heavy: B1 heavy with A230V, L235N
light: not shown
notes: copies: 2 + 2
B9: H237-MB625/MRAL-k0 (antibody, mouse IgG1, kappa)
heavy: B1 heavy with A230N
light: not shown
notes: copies: 2 + 2
B10: H237-MB678/MRAL-k0 (antibody)
heavy: B1 heavy with A230V, Y231K, L235D
light: not shown
notes: copies: 2 + 2
B11: H237-MB626/MRAL-k0 (antibody, mouse IgG1, kappa)
heavy: B1 heavy with A230T
light: not shown
notes: copies: 2 + 2
B12: H237-MB641/MRAL-k0 (antibody, mouse IgG1, kappa)
heavy: B1 heavy with L235Y
light: not shown
notes: copies: 2 + 2
B13: H237-MB631/MRAL-k0 (antibody, mouse IgG1, kappa)
heavy: B1 heavy with E229Q, A230P, Y231N
light: not shown
notes: copies: 2 + 2
B14: H237-MB632/MRAL-k0 (antibody, mouse IgG1, kappa)
heavy: B1 heavy with L235N
light: not shown
notes: copies: 2 + 2
B15: H237-MB639/MRAL-k0 (antibody, mouse IgG1, kappa)
heavy: B1 heavy with A230P, Y231N, L235N
light: not shown
notes: copies: 2 + 2
B16: H237-MB679/MRAL-k0 (antibody)
heavy: B1 heavy with A230D, Y231K, L235D
light: not shown
notes: copies: 2 + 2
B17: H237-MB642/MRAL-k0 (antibody, mouse IgG1, kappa)
heavy: B1 heavy with A230D, L235Y
light: not shown
notes: copies: 2 + 2
B18: H237-MB629/MRAL-k0 (antibody, mouse IgG1, kappa)
heavy: B1 heavy with E229I, A230P, Y231A
light: not shown
notes: copies: 2 + 2
B19: H237-MB683/MRAL-k0 (antibody)
heavy: B1 heavy with A230T, Y231K, L235D
light: not shown
notes: copies: 2 + 2
B20: H237-MB634/MRAL-k0 (antibody, mouse IgG1, kappa)
heavy: B1 heavy with A230N, L235N
light: not shown
notes: copies: 2 + 2
B21: H237-MB627/MRAL-k0 (antibody, mouse IgG1, kappa)
heavy: B1 heavy with A230V
light: not shown
notes: copies: 2 + 2
B22: H237-MB645/MRAL-k0 (antibody, mouse IgG1, kappa)
heavy: B1 heavy with A230V, L235Y
light: not shown
notes: copies: 2 + 2
B23: H237-MB676/MRAL-k0 (antibody)
heavy: B1 heavy with A230P, Y231N, L235K
light: not shown
notes: copies: 2 + 2
B24: H237-MB681/MRAL-k0 (antibody)
heavy: B1 heavy with A230P, Y231K, L235D
light: not shown
notes: copies: 2 + 2
B25: H237-MB640/MRAL-k0 (antibody, mouse IgG1, kappa)
heavy: B1 heavy with E229Q, A230P, Y231N, L235N
light: not shown
notes: copies: 2 + 2
B26: H237-MB682/MRAL-k0 (antibody)
heavy: B1 heavy with A230P, Y231K, L235D
light: not shown
notes: copies: 2 + 2
B27: H237-MB638/MRAL-k0 (antibody, mouse IgG1, kappa)
heavy: B1 heavy with E229I, A230P, Y231A, L235N
light: not shown
notes: copies: 2 + 2
B28: H237-MB624/MRAL-k0 (antibody, mouse IgG1, kappa)
heavy: B1 heavy with A230D
light: not shown
notes: copies: 2 + 2
B29: H237-MB594/MRAL-k0 (antibody, mouse IgG1, kappa)
heavy: B1 heavy with A230V, Y231P, V233E, L235S
light: not shown
notes: copies: 2 + 2
B30: H237-MB680/MRAL-k0 (antibody)
heavy: B1 heavy with A230N, Y231K, L235D
light: not shown
notes: copies: 2 + 2

Key:
[1] = molecular target: T1, mouse FcγRII extracellular domain, …; assay: SPR Biacore T200, KD ratio
Procedure: (§1) Each altered antibody was analyzed for its interaction with each Fcγ receptor prepared above using Biacore T100 (GE Healthcare Japan Corp.), Biacore T200 (GE Healthcare Japan Corp.), Biacore A100, or Biacore 4000. The running buffer used was HBS-EP+ (GE Healthcare Japan Corp.). The assay temperature was set to 25° C. The sensor chips used were chips prepared by immobilizing Protein L (ACTIGEN or BioVision) onto Series S Sensor Chip CM5 (GE Healthcare Japan Corp.) or Series S Sensor Chip CM4 (GE Healthcare Japan Corp.) by the amine coupling method.
(§2) In order to calculate the KD value of each altered antibody for FcγR, kinetic analysis was conducted according to the following method: first, the antibody of interest was captured onto any of these chips and allowed to interact with mFcγR diluted with a running buffer. For the obtained sensorgram, the assay results were globally fit into the 1:1 Langmuir binding model using Biacore Evaluation Software to calculate an association rate constant ka (L/mol/s) and a dissociation rate constant kd (1/s). From these values, the dissociation constant KD (mol/L) was calculated.

[2] = molecular target: T2, mouse FcγRIII extracellular domain, …; assay: SPR Biacore T200, KD ratio
Procedure: as §1, §2

[3] = molecular target: T3, mouse FcγRIII extracellular domain, …; assay: SPR (Biacore T200); KD of H237-mIgG1/MRAL-k0 / KD of variant
[4] = molecular target: T4, mouse FcγRII extracellular domain, …; assay: as above
mouse FcγRIII = molecular target: T5, mouse FcγRIII; assay: SPR (Biacore), antibody captured on Protein L
Procedure: as §1, §2

mouse FcγRII = molecular target: T6, mouse FcγRII; assay: SPR (Biacore), antibody captured on Protein L
Procedure: as §1, §2

Binder | relative mFcγRII-binding activity (mIgG1 = 1) [1] [fold] | relative mFcγRIII-binding activity (mIgG1 = 1) [2] [fold] | other results
B1 | 0.53 | 0.09 | 
B2 | 5.06 | 0.29 | 
B3 | 2.2 | 0.06 | 
B4 | 2.77 | 0.17 | 
B5 |  |  | relative mFcγRIII-binding activity (mIgG1 = 1) [3]: 1.02 fold; relative mFcγRII-binding activity (mIgG1 = 1) [4]: 5.37 fold
B6 | 14.3 | 0.25 | 
B7 | 2.6 | 0.15 | 
B8 | 4.41 | 0.14 | 
B9 | 0.67 | 0.12 | 
B10 |  |  | relative mFcγRIII-binding activity (mIgG1 = 1) [3]: 2.01 fold; relative mFcγRII-binding activity (mIgG1 = 1) [4]: 8.03 fold
B11 | 0.81 | 0.12 | 
B12 | 1.47 | 0.13 | 
B13 | 4.29 | 0.28 | 
B14 | 3.64 | 0.18 | 
B15 | 4.91 | 0.38 | 
B16 |  |  | relative mFcγRIII-binding activity (mIgG1 = 1) [3]: 1.68 fold; relative mFcγRII-binding activity (mIgG1 = 1) [4]: 7.57 fold
B17 | 1.87 | 0.08 | 
B18 | 0.38 | 0.04 | 
B19 |  |  | relative mFcγRIII-binding activity (mIgG1 = 1) [3]: 0.9 fold; relative mFcγRII-binding activity (mIgG1 = 1) [4]: 7.7 fold
B20 | 2.52 | 0.21 | 
B21 | 0.32 | 0.09 | 
B22 |  |  | Kd (mouse FcγRIII): 1420 nM and 2360 nM; Kd (mouse FcγRII): 180 nM and 307 nM
B23 |  |  | relative mFcγRIII-binding activity (mIgG1 = 1) [3]: 0.12 fold; relative mFcγRII-binding activity (mIgG1 = 1) [4]: 0.22 fold
B24 |  |  | relative mFcγRIII-binding activity (mIgG1 = 1) [3]: 1.83 fold; relative mFcγRII-binding activity (mIgG1 = 1) [4]: 13.9 fold
B25 | 1.06 | 0.18 | 
B26 |  |  | relative mFcγRIII-binding activity (mIgG1 = 1) [3]: 2.14 fold; relative mFcγRII-binding activity (mIgG1 = 1) [4]: 14 fold
B27 | 0.75 | 0.08 | 
B28 | 0.8 | 0.1 | 
B29 |  |  | Kd (mouse FcγRIII): 3230 nM and 9030 nM; Kd (mouse FcγRII): 115 nM and 250 nM
B30 |  |  | relative mFcγRIII-binding activity (mIgG1 = 1) [3]: 1.75 fold; relative mFcγRII-binding activity (mIgG1 = 1) [4]: 8.97 fold
